The data set concerns ZFN 30035 (AAVS1) (synthetic). The data set can be described thus: cell_activity. The conditions noted are these: pair 30035:30054 in CD34+ cells, higher AAV6 donor dose, ZFN mRNA 40 ug/ml.

In turn, “CCCCACTGTGGGGTGGAGGGGACAGATA (double strand) [AAVS1 30035 target]” returned an activity (% targeted integration) greater than 50.

The values above are taken from patent US20180216136.
